The RNAGym collection of RNA variant scans (doi:10.1073/pnas.2313332121)
Fewer inactive variants are shown than the library holds.

B1: TPR 5TU (parent)
chain: GGAUCUUCUCGAUCUAACAAAAAAGACAAAUCUGCCACAAAGCUUGAGAGCAUCUUCGGAUGCAGAGGCGGCAGCCUUCGGUGGCGCGAUAGCGCCAACGUUCUCAACUAUGACACGCAAAACGCGUGCUCCGUUGAAUGGAGUUUAUCAUG

Variants of: B1
Experiment: polymerase ribozyme fitness, log enrichment relative to wild type (log ratio); higher = more active; in vitro selection for triplet polymerase activity
Procedure, shortened: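 Mutant libraries of each subunit of a heterodimeric triplet polymerase ribozyme were built by PCR and transcribed. Each library went through one round of in vitro selection in triplicate: annealing with biotinylated primer, partner subunit and triplets, frozen incubation at −7 °C, gel excision of extended constructs, streptavidin-bead capture and RT-PCR. Input and output libraries were Illumina-sequenced; only genotypes with ≥10 input reads and ≥1 read per output were kept. Fitness is log2(genotype enrichment/wild-type enrichment), using inverse-variance-weighted replicate averages.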

**Q.** Which “polymerase ribozyme fitness (log ratio)” value does the source give for GGAUCUUCUCGAUCUAACAAAAAAGACAAAUCGGCCAAAAAGCUUGAGAGCAUCUUCGGAUGCAGAGGCGGCAGCCUUCGGUGGCGCGAUAGUGCCAACGUUCUCAACUAUGUCACGCAAAACGCGUGCUCCGUUAAUUGGAGUUUAUCAUG [U33G C38A C93U A113U G136A A138U] here?
**A.** ≤ -4.2

**Q.** With GGAUCUUCUCGAUCUAACAAAAAAGACAAAUCGGCCACAAAGCUUGAGCGCAUCUUCGGAUGCAGAGGCGGCAGGCUUCGGUGGCGCGAUAACGCCAACGGUCUAAACUAUGACACGCAAAACGCGUGCUCCGUUGAAUGGAGUUUAUCAUG [U33G A49C C75G G92A U101G C105A] as the variant, how does the “polymerase ribozyme fitness (log ratio)” value read?
**A.** -4.15

**Q.** Which “polymerase ribozyme fitness (log ratio)” value does the source give for GGAUCUUCUCGAUCUAACAAAAAAGACAAAUCGGCCACAAAGUUUGAGCGCAUCUUCGGAUGCAGAGGCGGCAGCCGUCGGUGGCGCGAUUGCGCCAACGAUCUGAACUAUGACACGCAAAACGCGUGCUCCGUUGAAUGGAGUUUAUCAUG [U33G C43U A49C U77G A91U U101A C105G] here?
**A.** ≤ -4.2

**Q.** Which “polymerase ribozyme fitness (log ratio)” value does the source give for GGAUCUUCUCGAUCUAACAAAAAAGACAAAUCAGCCACAAAGCUUGAGCCCAUCUUCGGAUGCAGAGGCGGCAGCAUUCGGUGGGGCGAUAGCGCCAACGUUCUCAACUAUGACACGCAAAACGCGUGCUCCGUUGAUUGGAGUUUAUCACG [U33A A49C G50C C76A C85G A138U U151C] here?
**A.** ≤ -4.2

**Q.** With GGAUCUUCUCGAUCUAACAAAAAAGACAAAUCGGUCACAAAGCUUGAGAGCAUCUUCGUAUGCAGAGGCGGCAGGCUUCGGUGGCGCGAUAGCGCCAACGUUCUCAACUAUGACACGCAAAACGCGUACUCCGUUGAAAGGAGUUUAUCAUG [U33G C35U G59U C75G G128A U139A] as the variant, how does the “polymerase ribozyme fitness (log ratio)” value read?
**A.** -4.05

**Q.** For GGAUCUUCUCGAUCUAACAAAAAAGACAAAUCAGCCACAAAGCUUGAGAGCGUCUUCGGUUGCAGAGGCGGCAGCCUUCGGUGACGCGAUAGCGGCAACGUUCUCAACGAUGACUCGCAAAACGCGUGCUCCUUUGAAUCGAGUUGAUCAUG [U33A A52G A60U G84A C95G U109G A115U G133U G140C U146G], which “polymerase ribozyme fitness (log ratio)” value is on record?
**A.** ≤ -4.2

**Q.** Which “polymerase ribozyme fitness (log ratio)” value does the source give for GGAUCUUCUCGAUCUAACAAAAAAGACAAAUCCGCCGCAAAGCUUGAGAGCAUCUUCGGAUGAAGAGGCGGCAGCCUUCGGUGGCGGGAUAGCGCCAACGUUCUCAACUAGGACACGCAAAACGCGUGCUCCGUUGAAUGGAGUUUAUCAAG [U33C A37G C63A C87G U111G U151A] here?
**A.** ≤ -4.2

**Q.** Which “polymerase ribozyme fitness (log ratio)” value does the source give for GGAUCUUCUCGAUCUAACAAAAAAGACAAAUCGGCCACAAAGCUUGAGAGCGUCUUCGGAUGCAGAGGCGGCAGCCUUCGGUGGCGCGAUAGCGCCAACGUUCUCAACUAUGACACGCAAAACGCGUGCGUCUUUGAAUGGAGUUAAUCAUG [U33G A52G U130G C131U G133U U146A] here?
**A.** ≤ -4.2

**Q.** For GGAUCUUCUCGAUCUAACAAAAAAGACAAAUCGGCCACGAAGCUUGAGAGCAUCUUCGGAUUCAGAGGCGGCAGCCUUCGGUGGCGCGAUAACGCCAACGUUCUCAACUAUGACACGCAAAUCGCGUGCUCCGAUGAAUGGAGUUUAUCAUG [U33G A39G G62U G92A A122U U134A], which “polymerase ribozyme fitness (log ratio)” value is on record?
**A.** ≤ -4.2

**Q.** Which “polymerase ribozyme fitness (log ratio)” value does the source give for GGAUCUUCUCGAUCUAACAAAAAAGACAAAUCGGCCACAACGUUUGAGAACAUCUUCGGAUGCAGAGGCGGCAGCCUUCGGUGGCGCGAUAGCGCCAACGUUCUCAACUAUGACACGCAAAACGCGUGCUCCGUUGAAUGGAGUUUAUCAUU [U33G A41C C43U G50A G152U] here?
**A.** -4.07

**Q.** Which “polymerase ribozyme fitness (log ratio)” value does the source give for GGAUCUUCUCGAUCUAACAAAAAAGACAAAUCCGCCACAAAGCUUGAGAGCAUCUGCGGAUGCAGAGGCGGCAGCCUUCGGUGGCGCGAUAGUGCCAACGUUCUCAACUAUGACACGCAAAACGCGUGCUCCGUUGAAUGGAGUUUAUCAUG [U33C U56G C93U] here?
**A.** ≤ -4.2

**Q.** For GGAUCUUCUCGAUCUAACAAAAAAGACAAAUCAGCCAGAAAGCUUGAGAGCUUCUUCGGAUGCAGAGGCGGCAGCCUUCGGUGGCGGGAUAGCGCCAACGUUCUCAACUAUGACACGCAAAACGCGUGCUCCGUUAAAUGGAGUUUAUCAUG [U33A C38G A52U C87G G136A], which “polymerase ribozyme fitness (log ratio)” value is on record?
**A.** ≤ -4.2

**Q.** For GGAUCUUCUCGAUCUAACAAAAAAGACAAAUCCGCCACAAAGCUUGAGAGUAUCUUCGCAUGAAGAGGCGGCAGCCUUCGGUGGCGCGAUAGCGCCAACGUUCUCAACUAUGACACGCACAACGGGUGCUCCGGUGAAUGGAGUUUAUCAUG [U33C C51U G59C C63A A120C C125G U134G], which “polymerase ribozyme fitness (log ratio)” value is on record?
**A.** ≤ -4.2

**Q.** Which “polymerase ribozyme fitness (log ratio)” value does the source give for GGAUCUUCUCGAUCUAACAAAAAAGACAAAUCCGCCACAAAGCUUGAGAGCAUCUUCGGAUGCAGAGGCGGCAGCCUUCGGUGGUGCGAUAGCGCCAACGUUCUCAACUAUGACACGCGAAACGCGUGCUCCGUUGAAUGGAGUUUAUCAUG [U33C C85U A119G] here?
**A.** -3.71

**Q.** Which “polymerase ribozyme fitness (log ratio)” value does the source give for GGAUCUUCUCGAUCUAACAAAAAAGACAAAUCAGCCACAAAGCUUGAGAACAUCUUCGGAUGCCGAGGCGGCAGCCUUCGGUCGCGCGAUAGCGCCAACGUUCUCAACUAUGACACGCAAAACGCGUGCUCCGUUGAAUGGAGUUUAUCAUG [U33A G50A A64C G83C] here?
**A.** ≤ -4.2

**Q.** Which “polymerase ribozyme fitness (log ratio)” value does the source give for GGAUCUUCUCGAUCUAACAAAAAAGACAAAUCAGCCACAAAGCUUGAGAGCAUCUUCGGAUGCAGAGGCGGCAGGCUACGGUGGCGCGAUAGCGCCAACGAUCUCAACUAUGACACGCAAAACGCGUGCUCCGUUGAAUGGAGUUUAUCAUU [U33A C75G U78A U101A G152U] here?
**A.** -4.02

**Q.** For GGAUCUUCUCGAUCUAACAAAAAAGACAAAUCCGCCACAAAGCUUGAGAGCAUCUUCGGAUGCAGAGGCGGCAGCCUUCGGUGGCGCGAUAGCGCCAACGUUCUCAACUAUGACACGCAAAACGCGUGCUCCGUUGAAUGGAGUUUAUCAUG [U33C], which “polymerase ribozyme fitness (log ratio)” value is on record?
**A.** -1.48

**Q.** Which “polymerase ribozyme fitness (log ratio)” value does the source give for GGAUCUUCUCGAUCUAACAAAAAAGACAAAUCGGCCACAAAGCUUGAGAGCAUCUUCGGAUGCAGAGGCGGCAGCCUUCGGUGGCGCGAUAGCGCCAACGUUCUCAACUAUGACACGCAAAACGCGUGCUCCGUUGAAUGGAGUUUAUCAUG [U33G] here?
**A.** -2.4

**Q.** With GGAUCUUCUCGAUCUAACAAAAAAGACAAAUCAGCCACAAAGCUUGAGAGCAUCUUCCGAUGCAGAGGCGGCAGCCUUCGGUGGCGCGAUAACGCCAACGUUCUCAACUAUGACACGCAAAACGCGUGCUCCGUUUAAUGGAGUUUAUCAUG [U33A G58C G92A G136U] as the variant, how does the “polymerase ribozyme fitness (log ratio)” value read?
**A.** ≤ -4.2
